B1: UBQLN2 450–624 (domain or fragment, human)
chain: RAMQALMQIQQGLQTLATEAPGLIPSFTPGVGVGVLGTAIGPVGPVTPIGPIGPIVPFTPIGPIGPIGPTGPAAPPGSTGSGGPTGPTVSSAAPSETTSPTSESGPNQQFIQQMVQALAGANAPQLPNPEVRFQQQLEQLNAMGFLNREANLQALIATGGDINAAIERLLGSQPSW
B2: UBQLN2 379–624 (domain or fragment, human)
chain: NPQLIQNMLSAPYMRSMMQSLSQNPDLAAQMMLNSPLFTANPQLQEQMRPQLPAFLQQMQNPDTLSAMSNPRAMQALMQIQQGLQTLATEAPGLIPSFTPGVGVGVLGTAIGPVGPVTPIGPIGPIVPFTPIGPIGPIGPTGPAAPPGSTGSGGPTGPTVSSAAPSETTSPTSESGPNQQFIQQMVQALAGANAPQLPNPEVRFQQQLEQLNAMGFLNREANLQALIATGGDINAAIERLLGSQPSW

Key:
Ubiquitin (WT) = Ubiquitin (WT) (UniProt P0CG48 1-76); assay: NMR titration
SEC = biological target: the molecule itself; assay: SEC

| Binder | Kd (Ubiquitin (WT)) [nM] | binding result (SEC) |
| --- | --- | --- |
| B1 | 3000 | binds |
| B2 | – | binds |

— publication PMC6181577 (Molecular cell, 2018)
